Laboratory results published in US20220119502A1 (ANN AND ROBERT H LURIE CHILDREN S HOSPITAL OF CHICAGO, published 2022).

Assays:
[1] = molecular target: KD peptide (NS4A peptide 2), BSA conjugated; test: ELISA
[2] = molecular target: T1, bovine serum albumin (Fraction V, Fisher BP1600) (bovine, UniProt P02769 25-607); test: polyreactivity ELISA
T1 construct: also called BSA

[3] = molecular target: multiple related peptides of hepacivirus C NS4A (animal virus peptide array); test: animal virus peptide array, 2.5 ug/ml
[4] = molecular target: integral membrane protein 2B (ITM2B) (human, UniProt Q9Y287 1-266); test: HuProt v4.0 human proteome array, 1 ug/ml
Chain of integral membrane protein 2B (ITM2B) (Q9Y287 whole entry): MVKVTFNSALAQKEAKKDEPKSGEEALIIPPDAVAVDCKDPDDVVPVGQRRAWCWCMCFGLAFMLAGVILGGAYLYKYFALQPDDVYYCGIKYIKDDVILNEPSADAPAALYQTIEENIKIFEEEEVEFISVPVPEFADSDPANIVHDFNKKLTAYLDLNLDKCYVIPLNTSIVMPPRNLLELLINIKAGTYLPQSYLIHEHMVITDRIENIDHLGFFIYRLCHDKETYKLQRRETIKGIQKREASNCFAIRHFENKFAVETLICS

T1 sequence (P02769 25-607 limits assumed): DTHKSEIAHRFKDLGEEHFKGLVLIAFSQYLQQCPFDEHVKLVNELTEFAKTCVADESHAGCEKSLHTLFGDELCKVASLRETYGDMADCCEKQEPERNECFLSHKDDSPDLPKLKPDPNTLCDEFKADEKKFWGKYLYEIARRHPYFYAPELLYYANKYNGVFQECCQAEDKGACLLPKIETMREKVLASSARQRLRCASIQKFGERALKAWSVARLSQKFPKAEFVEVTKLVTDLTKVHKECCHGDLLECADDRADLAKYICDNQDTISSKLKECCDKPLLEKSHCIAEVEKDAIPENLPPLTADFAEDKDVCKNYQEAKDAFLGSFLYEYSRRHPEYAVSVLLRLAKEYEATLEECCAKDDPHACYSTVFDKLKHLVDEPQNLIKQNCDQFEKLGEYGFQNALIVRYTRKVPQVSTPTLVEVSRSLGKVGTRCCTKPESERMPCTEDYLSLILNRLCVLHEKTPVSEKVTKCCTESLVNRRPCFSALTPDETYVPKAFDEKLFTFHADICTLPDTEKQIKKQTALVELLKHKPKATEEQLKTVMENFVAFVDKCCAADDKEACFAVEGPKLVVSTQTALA

| Binder | binding result [2] | also measured |
| --- | --- | --- |
| KD9-1B5 (antibody, V domains shown) VH: QVQLQESGPGLVKPSETLSLTCTVSGGSINSYYWSWIRQPPGKGLEWIGYIYYSGSTNYNPSLKSRVTISVDTSKNQFSLRLSSVTAADTAVYYCARHPTAGTSYGMDVWGQGTTVTV VL: QSALTQPASESGSPGQSITISCTGTTSDVGSYNLVSWYQQHPGKAPKLMIYEGTKRPSGVSNRFSGSKSGNTASLTISGLQPEDEADYYCCSYAGTTTYVFGTGTKVTVL | – | OD450 (KD peptide minus scrambled peptide) [1]: < 0.04 OD |
| KD6-2B2 (antibody, V domains shown, also called rabbit KD6-2B2; KD36-2B32) VH: EVQLVESGGGVAQPGTSLRLSCEASGFTFRDYAMRWVRQAPGKGLEWVAFIWNDGSKKYYTDSVRGRFTISRDNSKNMLYLQMDSLRAEDTALYYCARKMSEDDAFDLWGQGTMVTV VL: DIQMTQSPSTLSASAGDRVTITCRASQSVSKYLAWYQQKPGKAPRLLIYKASSLQSGVPSRFSGSGSGTEFTLTISSLQPDDFATYYCQHYNTYPSWTFGQGTKVEIK | no binding (tested: 10, 1, and 0.1 ug/ml) | – |
| KD8-1B10 (antibody, V domains shown) VH: EVQLVESGGGLVQPGGSLRLSCAASGFTFSDHYMDWVRQVPRKGLEWVGRARNKANSYTTEYAASVKGRFTISRDDSKNSLYLQMNSLKSEDTAVYYCARFLLIADAFDIWGQGTMVTV VL: DIQMTQSPSSLSASLGDRVTITCRASQGIRHDLGWYQQKPGKAPKLLIYGASTLQTGVPSRFSGSGSGTDFTLTISSLQPEDFATYYCLQKYNYPLTFGGGTKVEIK | no binding (tested: 10, 1, and 0.1 ug/ml) | – |
| KD8-1D4 (antibody, V domains shown) VH: EVQLVESGGGLVQPGGSLRLSCAASGFTFSDYYMDWVRQAPGKGLEWVGRTRNKANSYTTEYAASVKGRFTISRDDSKNSLYLQMNSLKTEDTAVYYCARFLLVADAFDIWGQGTMVTV VL: DIQMTQSPSSLSASVGDRVTITCRASQGIRNDLGWYQQKPGKAPKLLIYGASSLQSGVPSRFSGSGSGTDFTLTISSLQPEDIATYYCLQEYTYPLTFGGGTKVEIK | no binding (tested: 10, 1, and 0.1 ug/ml) | – |
| KD6-1A10 (antibody, V domains shown) VH: VQLVESGGGVVQPGRSLRLSCAASGFSFSNYFMHWVRHVPGKGLEWLATIWYDGSDKYYVDSVKGRFTISRDNSKNTLYLQMGSLRAEDTAMYYCAKGRQRGYYYDMGGYYVFDSWGQGTLVTVSS VL: QSVLTQPPSASGTPGQGVTISCSGSRSNIGSNTVNWYRQFPGTAPKLLIYKNNQRPSGVPDRFSGSKPGTSAYLAITGLQSDDQADYYCAAWDDSLKGVVFGGGTKLTVL | no binding (tested: 10, 1, and 0.1 ug/ml) | – |
| KD4-2H4 (rabbit version) (antibody, V domains shown, also called Rabbit KD4-2H4) VH: EVQLVESGGGLVQPGGSLRLSCAASGFTFSSYWMYWVRQAPGKGLVWVSRINSDGSTTNYADSVKGRFTISRDNAKNTLYLQMNSLRAEDTAVYFCARYAHLGIGWYFDLWGRGTLVTVSS VL: QSALTQPRSVSGSPGQSVTISCTGTSSDVGGYNYVSWYQQHPGKAPKLMIYDVSKRPSGVPDRFSGSKSGNTASLTISGLQAEDEADYYCCSYAGSYTLLFGGGTKLTVL | no binding (tested: 10, 1, and 0.1 ug/ml) | spot intensity (fluorescence units) (fluorescence units) [3]: > 200 |
| KD4-2H4 (human version) (antibody, V domains shown, also called human KD4-2H4) VH: EVQLVESGGGLVQPGGSLRLSCAASGFTFSSYWMYWVRQAPGKGLVWVSRINSDGSTTNYADSVKGRFTISRDNAKNTLYLQMNSLRAEDTAVYFCARYAHLGIGWYFDLWGRGTLVTVSS VL: QSALTQPRSVSGSPGQSVTISCTGTSSDVGGYNYVSWYQQHPGKAPKLMIYDVSKRPSGVPDRFSGSKSGNTASLTISGLQAEDEADYYCCSYAGSYTLLFGGGTKLTVL | – | binding result [4]: binds |
